Assay results reported in article PMC10531985, “A Unique G-Quadruplex Aptamer: A Novel Approach for Cancer Cell Recognition, Cell Membrane Visualization, and RSV Infection Detection”.

Experiments:
nucleolin (NCL) [1] = molecular target: T1, nucleolin (NCL) (Homo sapiens, UniProt P19338 1-710); assay: EMSA; K+; SPR: 10 mM HEPES, 150 mM KCl, 3 mM EDTA, pH 7.4, NCL on CM5 chip, temperature not stated; EMSA: 5x binding buffer listed as 40 mM Tris, 30 mM KCl, 1 mM MgCl2, 1 mM DTT, pH 8.0, 200 nM probe, room temperature 25 min, gel with 20 mM KCl at 4 C; conditions: protein: recombinant; label: 5'-FAM; parallel G4
T1 sequence (P19338 whole entry): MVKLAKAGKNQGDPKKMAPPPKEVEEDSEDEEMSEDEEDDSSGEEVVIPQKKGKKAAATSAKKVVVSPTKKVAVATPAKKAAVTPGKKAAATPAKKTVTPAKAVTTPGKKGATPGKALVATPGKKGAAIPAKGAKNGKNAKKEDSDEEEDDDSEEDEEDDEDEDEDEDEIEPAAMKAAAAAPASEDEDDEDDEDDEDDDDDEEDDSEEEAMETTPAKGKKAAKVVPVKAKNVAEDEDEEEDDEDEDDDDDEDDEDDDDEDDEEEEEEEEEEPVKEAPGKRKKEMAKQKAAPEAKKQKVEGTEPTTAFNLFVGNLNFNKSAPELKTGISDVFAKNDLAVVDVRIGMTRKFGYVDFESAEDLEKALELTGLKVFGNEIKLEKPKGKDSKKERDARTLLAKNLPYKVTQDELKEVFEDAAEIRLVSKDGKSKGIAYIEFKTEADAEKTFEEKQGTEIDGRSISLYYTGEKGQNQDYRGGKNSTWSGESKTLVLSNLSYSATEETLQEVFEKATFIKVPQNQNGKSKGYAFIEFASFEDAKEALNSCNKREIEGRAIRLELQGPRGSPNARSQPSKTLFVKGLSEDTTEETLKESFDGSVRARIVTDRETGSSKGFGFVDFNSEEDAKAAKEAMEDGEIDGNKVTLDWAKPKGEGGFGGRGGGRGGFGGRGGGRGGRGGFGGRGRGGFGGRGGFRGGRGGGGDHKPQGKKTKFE

nucleolin (NCL) [2] = molecular target: T1, nucleolin (NCL); assay: SPR; 150 mM KCl; SPR: 10 mM HEPES, 150 mM KCl, 3 mM EDTA, pH 7.4, NCL on CM5 chip, temperature not stated; EMSA: 5x binding buffer listed as 40 mM Tris, 30 mM KCl, 1 mM MgCl2, 1 mM DTT, pH 8.0, 200 nM probe, room temperature 25 min, gel with 20 mM KCl at 4 C; conditions: protein: recombinant, parallel G4
nucleolin (NCL) [3] = molecular target: T1, nucleolin (NCL); assay: SPR; up to 2 uM aptamer; SPR: 10 mM HEPES, 150 mM KCl, 3 mM EDTA, pH 7.4, NCL on CM5 chip, temperature not stated; EMSA: 5x binding buffer listed as 40 mM Tris, 30 mM KCl, 1 mM MgCl2, 1 mM DTT, pH 8.0, 200 nM probe, room temperature 25 min, gel with 20 mM KCl at 4 C; conditions: protein: recombinant; no G4

B1: Apt-3-F (structured_RNA)
RNA: GUUAGGGUUUAUGGGAUUG
Nucleolin (NCL) [1]
  Kd: 77.1 nM
Nucleolin (NCL) [2]; label: 5'-FAM
  Kd: 24.9 nM

B2: Apt-3 mutant (ssRNA)
RNA: GUUAGAGUUUAUGAGAUUG
Nucleolin (NCL) [3]
  binding result: no binding

B3: Apt-3 (structured_RNA)
RNA: GUUAGGGUUUAUGGGAUUG
Nucleolin (NCL) [2]
  Kd: 20.4 nM
